The target of assay [1] is T1, human IGF-1R(1-902)-His10 (human, UniProt P08069 31-932).
T1 construct: Cy5-labelled in tr-FRET; also called hIGF-1R-His10; IGF-1R-His
In words: protein ELISA. Background: In an ELISA, binding on a coated surface is turned into a signal by an enzyme label.

The target in assay [2] is T2, human IGF-1R expressed on cells (human, UniProt P08069 31-1367).
T2 construct: On MCF-7 tumor cells or on 3T3/CHO transfectants; precursor is processed into alpha and beta subunits; Signal peptide 1-30 left out as stated; also called wild type IGF-1R; IGF-1R 3T3
Description: binding to MCF-7 tumor cells.

For assay [3], the target named is T3, human IGF-1R(1-903)-Fc (human, UniProt P08069 31-933).
T3 construct: Made by Biogen Idec; Multimerises through IGF-1R and Fc; also called hIGF-1R-Fc; IGF-1R-Fc; not shown: C-terminal human IgG1-Fc tag
In words: ELISA, plate coated with soluble IGF-1 receptor Fc fusion protein, detection with anti-human kappa-HRP. As for the experimental part:
The plate was washed with phosphate-buffered saline (PBS, Irvine Scientific, Cat#9240), pH 7.4 plus 0.025% Tween 20 in the Skan Washer 300 (Skatron Instruments), blocked with buffer containing 1% nonfat milk, 0.05% Tween 20 in PBS, pH 7.4, and then incubated at room temperature for 1 hour. After incubation plate was washed with PBS plus 0.025% Tween 20 in the Skan Washer 300. […] Following a one hour incubation at room temperature, plate was washed with PBS plus 0.025% Tween 20 in the Skan Washer 300. […] Plate incubated for 1 hour at room temperature was washed with PBS plus 0.025% Tween 20 in the Skan Washer 300. […] The absorbance was measured at 450 nm, background 540 nm for TMB using the Molecular Devices plate reader. Data was analyzed using the SOFTMAX PRO software package version 4.3 LS (Molecular Devices Corp.).

Assay [4] concerns the target T4, human INSR(28-956)-His10 (human, UniProt P06213 28-956).
T4 construct: range 28-956; Bought (R&D Systems 1544-IR); also called rh-INSR; soluble insulin receptor
Description: ELISA, plate coated with rh-INSR. As for the experimental part:
ELISA assays were performed to determine specific binding of the Fab fragment antibodies to soluble IGF-1R over the insulin receptor. […] Color development was stopped by addition of 4NH₂SO₄ and optical density is measured at 450 nm using a Molecular Devices plate reader and binding curves are generated.

The target in assay [5] is T2, human IGF-1R expressed on cells. Description: flow cytometry, MCF-7 cells. As for the experimental part: The ability of Fabs to bind to the wild type IGF-1R was determined by flowcytometry using MCF-7 tumor cell line.
MCF-7 cells (Human Breast Adenocarcinoma from NCI) were split 24 hours prior to the setup of the assay to obtain 70% confluent monolayer. Routinely, MCF-7 cell line was maintained within 20 passages. Cells were lifted with cell dissociation buffer (Gibco catalog #13151-014), counted, washed and adjusted to 1×10⁶ cells/ml and one ml of cells were then added to each tube (12×75 mm tube Falcon catalog# 352054). Cells were pelleted and supernatant removed by centrifugation at 1200 rpm for 5 min and 100 μl of diluted antibodies were then added to the cell pellet. Purified Fabs were tested at a starting concentration of either 210 or 60 μg/ml with 1:3 dilutions in FACS buffer, down to 0.001 μg/ml. FACS buffer used throughout the assay was PBS (without Ca++/Mg++) containing 1% BSA (Sigma catalog# A-7906; Sigma-Aldrich Corp. (St. Louis, Mo., USA)) and 0.1% Sodium Azide (Sigma catalog #S2002). […] Samples were allowed to incubate on ice for 1 hour and 15 minutes then were washed with 2 ml FACS buffer and centrifuged at 1200 rpm for 5 minutes at 4° C. The supernatant was aspirated and 100 μl of the secondary detection antibody was added to each corresponding tube in FACS buffer. Samples were then incubated for 30 minutes on ice, in the dark. Cells were washed as described above, then, re-suspended in […] FACS buffer per tube/sample.
Cells were stained for live cell determination with Propidium Iodide staining solution (PI for dead cell exclusion; BD Pharmingen catalog# 51-66211E or 556463; use at 1:500 final in FACS buffer). Samples were run on the FACSCalibur instrument (Becton Dickinson) with 10,000 live events collected per sample.

In assay [6] the target is T5, Rhesus IGF-1R expressed on CHO cells (rhesus monkey, UniProt I2CWY3 31-1367).
T5 construct: whole, on cells; also called Rhesus IGF-1R/CHO
In words: flow cytometry and confocal microscopy, CHO transfectants. On the technique in general: In flow cytometry, cells or beads pass a laser one at a time.

For assay [7], the target named is T6, murine IGF-1R expressed on cells (mouse, UniProt Q60751 31-1373).
T6 construct: whole, on cells; also called mouse IGF-1R
Description: binding to CHO transfectants.

In assay [8] the target is T2, human IGF-1R expressed on cells. Description: cell-based or functional assay.
The target of assay [9] is T3, human IGF-1R(1-903)-Fc. Description: ELISA on hIGF-1R-Fc, competitor biotinylated M14-G11.
Assay [10] deals with T3, human IGF-1R(1-903)-Fc. In words: ELISA on hIGF-1R-Fc, competitor Zenon-labelled αIR3.
The target in assay [11] is T7, human insulin receptor expressed in mammalian cells (UniProt P06213 28-1382, limits assumed).
T7 construct: whole, on cells; Cells were solubilised with Triton X-100 before immunoprecipitation; also called INSR; IR
Description: immunoprecipitation from IR CHO lysate, western blot with mouse anti-human IR. Here is the method:
Recombinant IGF-1R and insulin receptor (IR) were independently expressed in mammalian cells (3T3 or CHO). […] Antibody/antigen complexes were released from the beads by acid treatment, applied to Tris-Glycine SDS-PAGE gels and blotted to nitrocellulose membranes. Detection was performed using mouse anti-human IR (FIG. 24A) or mouse anti-human IGF-1R (FIG. 24B) and goat α-mouse IgG.
For orientation: A western blot detects proteins with antibodies after separation by electrophoresis.

Assay [12] concerns the target T1, human IGF-1R(1-902)-His10. In words: SPR, antibody over captured IGF-1R-10His. Here is the method: All surface plasmon resonance (SPR) experiments were performed on a Biacore 3000 set to 25° C. using HBS-EP (Biacore, Cat. No. BR-1001-88) as the running buffer. A biotin-labeled anti-HisTag antibody (biotin-PENTA-His, Qiagen Cat. No. 34440) was immobilized to saturation on a Biacore SA chip (Cat. No. BR-1000-32) surface by injection at 500 nM in HBS-EP buffer. […] Subsequent to IGF-1R injections, flow rates were increased to 20 μL/min. A second, 130 μL injection of anti-IGF-1R antibody or Fab was performed to investigate interactions with the receptor. Each antibody and Fab was serially diluted from 64 nM to 0.5 nM to obtain concentration dependent kinetic binding curves. Each injection series was regenerated using 3×10 μL injections of 10 mM Acetate, pH 4.0, at 20 μL/min. Each curve was double referenced using (1) data obtained from a streptavidin surface devoid of IGF-1R and (2) data from a primary injection of IGF-1R followed by a secondary injection of HBS-EP buffer. The concentration series for each antibody and Fab was fit to the 1:1 binding model provided within the BiaEvaluation software of the manufacturer.
The rates at which the antibodies accumulate on the IGF-1R coated surface when applied at various concentrations as well as the rates at which they dissociated during applications of pure buffer were investigated by fitting the data to a 1:1 binding model. Approximate kinetic rate constants and equilibrium dissociation constant were calculated (Table 14).

This note sets out measurements from patent US20090291088A1 (Biogen, published 2009).

T6 sequence (Q60751 31-1373): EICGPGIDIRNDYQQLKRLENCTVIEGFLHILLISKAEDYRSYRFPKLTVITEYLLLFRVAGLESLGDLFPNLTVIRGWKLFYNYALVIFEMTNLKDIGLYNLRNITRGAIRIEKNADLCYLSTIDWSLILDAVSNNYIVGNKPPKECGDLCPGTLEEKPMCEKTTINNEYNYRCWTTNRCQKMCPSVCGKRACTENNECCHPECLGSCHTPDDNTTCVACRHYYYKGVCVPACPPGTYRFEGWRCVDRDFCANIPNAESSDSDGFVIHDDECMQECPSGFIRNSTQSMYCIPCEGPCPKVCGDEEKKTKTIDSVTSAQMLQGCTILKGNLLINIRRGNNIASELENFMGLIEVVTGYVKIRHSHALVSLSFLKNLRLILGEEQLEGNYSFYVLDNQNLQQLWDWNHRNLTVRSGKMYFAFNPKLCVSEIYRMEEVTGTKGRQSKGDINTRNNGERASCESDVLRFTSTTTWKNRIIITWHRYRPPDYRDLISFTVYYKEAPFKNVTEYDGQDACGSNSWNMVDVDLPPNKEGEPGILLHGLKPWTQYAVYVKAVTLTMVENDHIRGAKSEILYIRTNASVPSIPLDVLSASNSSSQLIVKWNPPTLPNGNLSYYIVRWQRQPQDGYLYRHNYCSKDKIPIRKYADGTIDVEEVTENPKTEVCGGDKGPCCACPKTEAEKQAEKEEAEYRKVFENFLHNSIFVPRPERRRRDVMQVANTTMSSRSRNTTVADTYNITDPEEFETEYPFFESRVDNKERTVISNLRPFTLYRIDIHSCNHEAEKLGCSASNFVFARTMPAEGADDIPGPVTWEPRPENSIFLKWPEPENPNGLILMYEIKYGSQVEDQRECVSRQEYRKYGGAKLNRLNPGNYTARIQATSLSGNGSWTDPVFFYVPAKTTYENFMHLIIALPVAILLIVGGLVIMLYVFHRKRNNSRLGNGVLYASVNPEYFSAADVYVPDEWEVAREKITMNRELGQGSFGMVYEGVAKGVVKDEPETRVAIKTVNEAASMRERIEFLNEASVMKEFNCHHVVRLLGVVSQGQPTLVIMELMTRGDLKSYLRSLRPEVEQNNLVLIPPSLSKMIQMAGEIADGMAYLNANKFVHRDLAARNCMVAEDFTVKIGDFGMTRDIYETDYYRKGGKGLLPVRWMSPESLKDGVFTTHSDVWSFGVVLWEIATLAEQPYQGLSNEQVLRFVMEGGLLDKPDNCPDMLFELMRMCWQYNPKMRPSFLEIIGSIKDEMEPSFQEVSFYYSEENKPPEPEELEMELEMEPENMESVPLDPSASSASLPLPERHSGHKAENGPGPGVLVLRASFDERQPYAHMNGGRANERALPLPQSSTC
T5 sequence (I2CWY3 entry or part of it): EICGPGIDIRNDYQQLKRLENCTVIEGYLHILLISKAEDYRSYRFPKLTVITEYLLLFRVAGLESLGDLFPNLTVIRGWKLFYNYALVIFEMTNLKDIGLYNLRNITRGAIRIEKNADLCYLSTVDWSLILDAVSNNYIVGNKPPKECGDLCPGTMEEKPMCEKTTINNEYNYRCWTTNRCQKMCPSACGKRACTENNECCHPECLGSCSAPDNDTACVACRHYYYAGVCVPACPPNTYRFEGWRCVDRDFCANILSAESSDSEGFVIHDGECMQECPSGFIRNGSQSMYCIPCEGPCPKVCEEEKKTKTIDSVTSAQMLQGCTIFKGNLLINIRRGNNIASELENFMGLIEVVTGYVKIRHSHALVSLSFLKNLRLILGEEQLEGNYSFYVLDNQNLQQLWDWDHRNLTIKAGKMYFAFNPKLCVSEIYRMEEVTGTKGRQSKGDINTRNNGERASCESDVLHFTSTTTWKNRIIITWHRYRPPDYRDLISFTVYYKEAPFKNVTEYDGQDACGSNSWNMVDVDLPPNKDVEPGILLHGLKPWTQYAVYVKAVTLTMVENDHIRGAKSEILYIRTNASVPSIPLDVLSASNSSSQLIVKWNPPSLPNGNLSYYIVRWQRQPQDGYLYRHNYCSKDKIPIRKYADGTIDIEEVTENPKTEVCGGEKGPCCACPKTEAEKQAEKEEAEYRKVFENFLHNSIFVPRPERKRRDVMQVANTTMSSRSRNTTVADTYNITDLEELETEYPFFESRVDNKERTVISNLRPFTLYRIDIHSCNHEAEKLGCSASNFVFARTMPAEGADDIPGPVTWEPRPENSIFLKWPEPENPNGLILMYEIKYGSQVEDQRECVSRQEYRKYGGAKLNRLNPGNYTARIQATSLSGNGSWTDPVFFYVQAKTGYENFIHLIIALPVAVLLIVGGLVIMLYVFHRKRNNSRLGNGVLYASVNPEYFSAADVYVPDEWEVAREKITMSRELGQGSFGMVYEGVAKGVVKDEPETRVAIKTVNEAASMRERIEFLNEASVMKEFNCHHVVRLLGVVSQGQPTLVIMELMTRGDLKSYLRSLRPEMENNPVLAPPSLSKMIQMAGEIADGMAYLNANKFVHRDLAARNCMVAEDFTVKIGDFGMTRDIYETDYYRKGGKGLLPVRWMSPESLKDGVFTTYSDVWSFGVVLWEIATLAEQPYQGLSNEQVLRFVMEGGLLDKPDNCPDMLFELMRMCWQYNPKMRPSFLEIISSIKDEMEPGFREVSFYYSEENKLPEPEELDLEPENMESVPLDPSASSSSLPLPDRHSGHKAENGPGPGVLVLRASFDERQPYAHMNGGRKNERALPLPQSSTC

B1: P2A7.3E11 (antibody, IgG2a, V domains shown)
VH: QVQLQQSGPELVKPGASVKMSCKASGNTFTDYVINWVKQRTGQGLEWIGEIYPGNENTYYNEKFKGKATLTADKSSNTAYMQLSSLTSEDSAVYFCARGIYYYGSRTRTMDYWGQGTSVTVSS
VL: EVVLTQSPTAMAASPGEKITITCSASSTLSSNYLHWYQQKPGFSPKLLIYRTSNLASGVPGRFSGSGSGTSYSLTIGTMEAEDVATYYCQQGSSIPLTFGAGTKLELK
notes: Murine hybridoma antibody, IgG2a/k; also called muP2A7
On to B1, for which the EC50 (in general, the concentration that produces a half-maximal response) stood at 0.011 nM in assay [1] and 0.447 nM in assay [2].

B2: P1A2.2B11 (antibody, IgG2b, V domains shown)
VH: QIQLVQSGPELKKPGETVKISCKASGYTFTNHGMNWVKQAPGKGLKWMGWNTSTGEPTYADDFKGRFAFSLETSASTAFLQINNLKNEDTASYFCASPLYYMYGRYIDVWGAGTAVTVSS
VL: DIQMTQTTSSLSASLGDRVTISCRASQDISNYLNWYQQKPDGTIKLLIYYTSRLHSGVPSRFSGSGSGTDYSLTISNLEQEDFATYFCQQGKTLPWTFGGGTKLEIK
notes: Murine hybridoma antibody, IgG2b/k
As to B2, the EC50 in assay [1] worked out at 0.023 nM; in assay [2] it was 1.1 nM.

B3: P1G10.2B8 (antibody, IgG1, V domains shown)
VH: QIQLVQSGPDLKKPGETVKISCKASGYTFTNHGMNWVKQAPGKDLKWMGWINTNTGEPTYADDFKGRFAFSLETSASTAYLQINNLKNEDTATYFCASPLYYRNGRYFDVWGAGTTVTVSS
VL: DIQMTQTTSSLSASLGDRVTISCRASQDISNYLNWYQQKPDGSVKLLIYYTSRLHSGVPSRFSGSGSGTDYSLTISNLEQEDIATYFCQQGKTLPWTFGGGTKLEIK
notes: Murine hybridoma antibody, IgG1/k
For B3, the EC50 in assay [1] was determined as 0.075 nM; in assay [2], 2.06 nM.

B4: M12-G04.G4.P (antibody, human IgG4, V domains shown)
VH: EVQLLESGGGLVQPGGSLRLSCAASGFTFSKYTMHWVRQAPGKGLEWVSSIVSSGGWTDYADSVKGRFTISRDNSKNTLYLQMNSLRAEDTAVYYCARDRSIAAAGTGWSVSFVDWFDPWGQGTLVTVSS
VL: DIQMTQSPLSLSASVGDRVTITCRASQSINGYLNWYQQKPGKAPNLLIYATSSLQSGVPSRFSGSGSGTDFTLTISSLQPEDFATYYCQQSYSTPPYTFGQGTKLEIK
notes: Full-length human IgG4.P, kappa; also called G4 version of M12-G04
As to B4, the EC50 (read off the curve) (as a rule, the concentration at which the effect is half-maximal) in [3] was roughly 0.2 nM.

B5: M12-G04 Fab (Fab, V domains shown)
VH: EVQLLESGGGLVQPGGSLRLSCAASGFTFSKYTMHWVRQAPGKGLEWVSSIVSSGGWTDYADSVKGRFTISRDNSKNTLYLQMNSLRAEDTAVYYCARDRSIAAAGTGWSVSFVDWFDPWGQGTLVTVSS
VL: DIQMTQSPLSLSASVGDRVTITCRASQSINGYLNWYQQKPGKAPNLLIYATSSLQSGVPSRFSGSGSGTDFTLTISSLQPEDFATYYCQQSYSTPPYTFGQGTKLEIK
notes: Human phage Fab, kappa
Take B5: the binding result in assay [4] is “no binding (tested: about 5000 nM)”. In assay [5], this molecule yielded an EC50 of 25 nM.

B6: P1E2.3B12 (antibody, IgG2b, V domains shown)
VH: QVQLQQPGAELVKPGASVKLSCKASGYTFTSYWMHWVKQRPGQGLEWIGEINPTYGRSNYNEKFKSKATLTVDKSSSTAYMQLSSLTSEDSAVYYCARLVRLRYFDVWGAGTTVTVSS
VL: DIVMTQAAFSNPVTLGTSASISCRSSKSLLHSNGITYLYWYLQKPGQSPQLLIYQMSNLASGVPDRFSSSGSGTDFTLRISRVEAEDVGVYYCAQNLELPYTFGGGTKLEIK
notes: Murine hybridoma antibody, IgG2b/k; also called P1E2 (hybridoma)
With B6, the EC50 in [1] is 0.016 nM; in assay [2], 0.391 nM.

B7: M14-G11.G4.P (antibody, human IgG4, V domains shown)
VH: EVQLLESGGGLVQPGGSLRLSCAASGFTFSNYPMYWVRQAPGKGLEWVSRISSSGGRTVYADSVKGRFTISRDNSKNTLYLQMNSLRAEDTAVYYCARDRWSRSAAEYGLGGYWGQGTLVTVSS
VL: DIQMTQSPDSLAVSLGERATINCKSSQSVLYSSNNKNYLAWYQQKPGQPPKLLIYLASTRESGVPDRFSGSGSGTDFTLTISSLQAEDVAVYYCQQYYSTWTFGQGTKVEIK
notes: Full-length human IgG4.P, kappa; also called M14.G11.P; G4 version of M14-G11
Consider B7, for which the binding result in assay [6] and in assay [7] was “binds” in each case. Also, the “EC50 (read off the curve)” value in [3] is roughly 0.06 nM. Further, the “inhibition of IGF-1 and IGF-2 mediated IGF-1R receptor phosphorylation (EC50)” value in assay [8] was less than 1 nM.

B8: M14-G11.G4.P.agly (antibody, human IgG4 S228P, kappa, V domains shown)
VH: EVQLLESGGGLVQPGGSLRLSCAASGFTFSNYPMYWVRQAPGKGLEWVSRISSSGGRTVYADSVKGRFTISRDNSKNTLYLQMNSLRAEDTAVYYCARDRWSRSAAEYGLGGYWGQGTLVTVSS
VL: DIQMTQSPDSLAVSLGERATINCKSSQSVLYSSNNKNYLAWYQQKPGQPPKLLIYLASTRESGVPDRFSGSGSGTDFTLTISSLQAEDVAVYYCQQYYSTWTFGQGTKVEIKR
notes: Full-length human aglycosylated IgG4.P, kappa; Places that say only 'M14-G11 antibody' were assigned to this version; also called M14-G11_Ab; Biotin-G11
On to B8, for which, in assay [9], the “percent competition (relative to self-competition)” value was in the range of 90 to 100%. Moreover, the “EC50 (read off the curve)” value in assay [3] was roughly 0.06 nM. Besides, in [10], the “percent competition (relative to self-competition)” value lay in the range of 50 to 70%. In assay [11], the binding result was “no binding”. Moreover, in [12], binding was put at a Kd of 0.11 nM; the koff – broadly, the rate constant with which the complex falls apart – was found to be 0.00011 s⁻¹; the kon (in general, a measure of how fast the partners come together) came to 1e+06 M⁻¹ s⁻¹.
